# Test results taken from US20250327050.
# Substitutions are numbered along the chain they refer to.
# Assays:
# [1] = tested on: T1, MBP-ZC3H14 full-length S475A mutant
# T1 sequence: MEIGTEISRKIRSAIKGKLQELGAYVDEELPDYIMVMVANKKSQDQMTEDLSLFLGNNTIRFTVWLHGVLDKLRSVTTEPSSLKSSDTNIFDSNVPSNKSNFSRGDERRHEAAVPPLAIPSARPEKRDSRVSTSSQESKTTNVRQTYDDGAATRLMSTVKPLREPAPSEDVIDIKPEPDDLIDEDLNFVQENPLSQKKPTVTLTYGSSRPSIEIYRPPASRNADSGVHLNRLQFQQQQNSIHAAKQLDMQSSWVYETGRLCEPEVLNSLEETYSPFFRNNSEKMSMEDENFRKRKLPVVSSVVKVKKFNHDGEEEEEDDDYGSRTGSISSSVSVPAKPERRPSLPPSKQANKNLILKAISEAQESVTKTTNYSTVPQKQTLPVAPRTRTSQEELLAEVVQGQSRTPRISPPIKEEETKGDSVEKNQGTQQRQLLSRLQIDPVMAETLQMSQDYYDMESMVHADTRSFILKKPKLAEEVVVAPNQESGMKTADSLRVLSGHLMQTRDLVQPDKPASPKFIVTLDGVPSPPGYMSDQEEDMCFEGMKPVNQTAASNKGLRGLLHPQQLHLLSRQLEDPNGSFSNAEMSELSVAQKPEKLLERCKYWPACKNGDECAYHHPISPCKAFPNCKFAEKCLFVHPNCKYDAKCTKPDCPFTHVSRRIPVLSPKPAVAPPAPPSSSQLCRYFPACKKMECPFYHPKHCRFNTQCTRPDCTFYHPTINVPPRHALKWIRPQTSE
# [2] = tested on: T2, MBP-ZC3H14 full-length wildtype (residues 1-736)
# T2 sequence: T1 sequence with A475S
substance,measurement,setting,value
"Cdk13 (694-1039) / Cyclin T1 (1-272, T149E) kinase complex",anti-thiophosphorylation immunoblot,[1],CDK13 directly phosphorylates ZC3H14 WT but not ZC3H14 S475A
same,in vitro kinase assay P32 counts per minute minus time zero,[1],CDK13 directly phosphorylates ZC3H14 WT but not ZC3H14 S475A
same,anti-thiophosphorylation immunoblot,[2],CDK13 directly phosphorylates ZC3H14 WT but not ZC3H14 S475A
same,in vitro kinase assay P32 counts per minute minus time zero,[2],CDK13 directly phosphorylates ZC3H14 WT but not ZC3H14 S475A
